This experiment addresses T1, fibrinogen (UniProt P02671-2;P02675;P02679-2).
T1 sequence 1: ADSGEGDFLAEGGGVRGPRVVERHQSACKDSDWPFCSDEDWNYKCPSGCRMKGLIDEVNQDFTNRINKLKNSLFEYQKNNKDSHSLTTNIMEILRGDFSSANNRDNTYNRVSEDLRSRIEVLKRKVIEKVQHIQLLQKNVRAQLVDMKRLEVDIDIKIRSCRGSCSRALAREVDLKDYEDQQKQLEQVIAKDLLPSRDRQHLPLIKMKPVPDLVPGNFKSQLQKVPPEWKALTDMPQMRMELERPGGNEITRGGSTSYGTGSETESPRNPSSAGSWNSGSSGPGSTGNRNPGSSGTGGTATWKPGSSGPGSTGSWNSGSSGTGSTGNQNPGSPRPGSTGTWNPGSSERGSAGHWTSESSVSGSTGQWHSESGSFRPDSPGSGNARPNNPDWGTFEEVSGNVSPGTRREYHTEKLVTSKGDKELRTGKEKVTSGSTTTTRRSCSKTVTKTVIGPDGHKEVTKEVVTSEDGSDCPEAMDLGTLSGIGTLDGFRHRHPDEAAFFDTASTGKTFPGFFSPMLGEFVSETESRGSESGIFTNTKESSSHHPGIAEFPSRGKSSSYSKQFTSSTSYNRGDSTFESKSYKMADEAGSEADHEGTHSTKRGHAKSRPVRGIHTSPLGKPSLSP
T1 sequence 2: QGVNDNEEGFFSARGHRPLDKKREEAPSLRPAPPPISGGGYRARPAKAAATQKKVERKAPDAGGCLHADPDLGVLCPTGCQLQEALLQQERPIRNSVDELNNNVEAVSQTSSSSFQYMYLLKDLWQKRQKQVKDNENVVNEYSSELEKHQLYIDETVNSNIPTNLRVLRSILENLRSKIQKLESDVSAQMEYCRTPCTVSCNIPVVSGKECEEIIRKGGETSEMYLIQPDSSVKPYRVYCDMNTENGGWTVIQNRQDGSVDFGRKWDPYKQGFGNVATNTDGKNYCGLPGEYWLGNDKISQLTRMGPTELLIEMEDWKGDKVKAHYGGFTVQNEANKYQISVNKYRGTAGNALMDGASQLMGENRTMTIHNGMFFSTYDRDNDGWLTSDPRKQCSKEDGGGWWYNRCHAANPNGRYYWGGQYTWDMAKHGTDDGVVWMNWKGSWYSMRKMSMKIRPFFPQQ
T1 sequence 3: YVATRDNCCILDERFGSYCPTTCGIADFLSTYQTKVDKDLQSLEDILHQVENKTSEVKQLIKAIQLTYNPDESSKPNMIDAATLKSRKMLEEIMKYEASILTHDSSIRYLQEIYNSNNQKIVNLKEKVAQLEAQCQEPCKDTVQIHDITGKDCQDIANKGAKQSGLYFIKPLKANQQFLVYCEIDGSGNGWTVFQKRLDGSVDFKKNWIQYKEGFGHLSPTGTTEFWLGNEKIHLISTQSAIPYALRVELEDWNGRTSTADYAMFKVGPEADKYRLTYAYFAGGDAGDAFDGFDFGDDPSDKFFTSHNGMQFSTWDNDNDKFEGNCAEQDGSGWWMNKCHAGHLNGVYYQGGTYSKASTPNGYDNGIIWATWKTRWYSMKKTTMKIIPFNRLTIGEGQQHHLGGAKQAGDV
The experiment is described as follows: BLI. For orientation: Biolayer interferometry detects binding as a change in optical thickness at a sensor tip.

B1: recombinant FXIII‐B (natural protein)
chain: EEKPCGFPHVENGRIAQYYYTFKSFYFPMSIDKKLSFFCLAGYTTESGRQEEQTTCTTEGWSPEPRCFKKCTKPDLSNGYISDVKLLYKIQENMRYGCASGYKTTGGKDEEVVQCLSDGWSSQPTCRKEHETCLAPELYNGNYSTTQKTFKVKDKVQYECATGYYTAGGKKTEEVECLTYGWSLTPKCTKLKCSSLRLIENGYFHPVKQTYEEGDVVQFFCHENYYLSGSDLIQCYNFGWYPESPVCEGRRNRCPPPPLPINSKIQTHSTTYRHGEIVHIECELNFEIHGSAEIRCEDGKWTEPPKCIEGQEKVACEEPPFIENGAANLHSKIYYNGDKVTYACKSGYLLHGSNEITCNRGKWTLPPECVENNENCKHPPVVMNGAVADGILASYATGSSVEYRCNEYYLLRGSKISRCEQGKWSSPPVCLEPCTVNVDYMNRNNIEMKWKYEGKVLHGDLIDFVCKQGYDLSPLTPLSELSVQCNRGEVKYPLCTRKESKGMCTSPPLIKHGVIISSTVDTYENGSSVEYRCFDHHFLEGSREAYCLDGMWTTPPLCLEPCTLSFTEMEKNNLLLKWDFDNRPHILHGEYIEFICRGDTYPAELYITGSILRMQCDRGQLKYPRCIPRQSTLSYQEPLRT
In general, Kd refers to a measure of binding affinity in units of concentration. Lower therefore signals higher affinity. Turning to B1, the affinity, expressed as Kd, was 46.9 nM.

(Values after article PMC9585388 (Research and Practice in Thrombosis and Haemostasis, 2022).)
